Key:
[1] = molecular target: the molecule itself; test: dynamic light scattering; purified E1 in solution; oligomeric state; conditions not shown (Figure S3)
E2 [2] = molecular target: T1, E2 (Human papillomavirus 16 (Methods 4.2; …, UniProt P03120 1-365); test: EMSA; 4 mM Mg2+, 1.4 mM ATP; E2 2.8 nM; C1* complex, two E2 dimers; details: protein: recombinant; tags: C-terminal 10xHis; chain copies: 2; label: 5' 32P; blunt
E1 helicase;E2 [3] = molecular target: T2, E1 helicase;E2 (Human papillomavirus 16 (Methods 4.2; …, UniProt P03114;P03120 1-649;1-365, |); test: EMSA; 4 mM Mg2+, 1.4 mM ATP; E2 2.8 nM, E1 43-347 nM; C2* and C3* complexes; details: protein: recombinant;recombinant; tags: C-terminal 10xHis;C-terminal 10xHis; chain copies: 6;2; label: 5' 32P; blunt
E1 helicase;E2 [4] = molecular target: T2, E1 helicase;E2; test: EMSA; 4 mM Mg2+, 1.4 mM ATP; E2 2.8 nM, E1 43-347 nM; C3* complex even at low E1; details: protein: recombinant;recombinant; tags: C-terminal 10xHis;C-terminal 10xHis; chain copies: 6;2; label: 5' 32P; blunt
E2 [5] = molecular target: T1, E2; test: EMSA; 4 mM Mg2+, 1.4 mM ATP; E2 2.8 nM; C1* complex, E2 dimer; details: protein: recombinant; tags: C-terminal 10xHis; chain copies: 2; label: 5' 32P; blunt

T1 sequence (P03120 whole entry): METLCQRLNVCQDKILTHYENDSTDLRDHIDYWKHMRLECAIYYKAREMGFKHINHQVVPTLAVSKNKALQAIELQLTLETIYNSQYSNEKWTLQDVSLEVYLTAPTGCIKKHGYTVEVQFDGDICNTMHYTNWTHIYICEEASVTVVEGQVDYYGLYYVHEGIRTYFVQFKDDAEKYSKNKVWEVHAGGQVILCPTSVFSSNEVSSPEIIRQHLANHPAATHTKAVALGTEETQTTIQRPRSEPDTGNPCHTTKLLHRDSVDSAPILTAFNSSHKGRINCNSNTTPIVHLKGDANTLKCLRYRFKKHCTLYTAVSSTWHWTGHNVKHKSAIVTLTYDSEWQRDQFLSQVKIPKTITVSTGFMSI
T2 sequence (P03120 whole entry, one chain of several): as the sequence (P03120 whole entry) above

B1: full-length HPV16 E1 helicase (enzyme)
chain: MADPAGTNGEEGTGCNGWFYVEAVVEKKTGDAISDDENENDSDTGEDLVDFIVNDNDYLTQAETETAHALFTAQEAKQHRDAVQVLKRKYLVSPLSDISGCVDNNISPRLKAICIEKQSRAAKRRLFESEDSGYGNTEVETQQMLQVEGRHETETPCSQYSGGSGGGCSQYSSGSGGEGVSERHTICQTPLTNILNVLKTSNAKAAMLAKFKELYGVSFSELVRPFKSNKSTCCDWCIAAFGLTPSIADSIKTLLQQYCLYLHIQSLACSWGMVVLLLVRYKCGKNRETIEKLLSKLLCVSPMCMMIEPPKLRSTAAALYWYKTGISNISEVYGDTPEWIQRQTVLQHSFNDCTFELSQMVQWAYDNDIVDDSEIAYKYAQLADTNSNASAFLKSNSQAKIVKDCATMCRHYKRAEKKQMSMSQWIKYRCDRVDDGGDWKQIVMFLRYQGVEFMSFLTALKRFLQGIPKKNCILLYGAANTGKSLFGMSLMKFLQGSVICFVNSKSHFWLQPLADAKIGMLDDATVPCWNYIDDNLRNALDGNLVSMDVKHRPLVQLKCPPLLITSNINAGTDSRWPYLHNRLVVFTFPNEFPFDENGNPVYELNDKNWKSFFSRTWSRLSLHEDEDKENDGDSLPTFKCVSGQNTNTL
notes: Replication protein E1 (DNA helicase) of human papillomavirus type 16, full-length, codon-optimized synthetic gene in pET28a; about 75 kDa on SDS-PAGE; Hexamer in solution by dynamic light scattering; also called HPV E1; E1 DNA helicase
stoichiometry N [1]: 6

B2: Oligo I, E2 BS1+2+E1BS (124 bp) (dsDNA)
DNA 1: GTAACCCACACCCTACATATTTCCTTCTTATACTTAATAACAATCTTAGTTTAAAAAAGAGGAGGGACCGAAAACGGTTCAACCGAAAACGGTTATATATAAACCAGCCCAAAAAATTAGCAGA
DNA 2: TCTGCTAATTTTTTGGGCTGGTTTATATATAACCGTTTTCGGTTGAACCGTTTTCGGTCCCTCCTCTTTTTTAAACTAAGATTGTTATTAAGTATAAGAAGGAAATATGTAGGGTGTGGGTTAC
binding result (E2 [2]): binds
binding result (E1 helicase;E2 [3]): binds

B3: Oligo II, E2 BS1+2 (50 bp) (dsDNA)
DNA 1: GGCGGGACCGAAAACGGTTCAACCGAAAACGGTTATATATAAACCAGCCC
DNA 2: GGGCTGGTTTATATATAACCGTTTTCGGTTGAACCGTTTTCGGTCCCGCC
binding result (E1 helicase;E2 [4]): binds

B4: Oligo III, E2 BS (24 bp) (dsDNA)
DNA 1: CTTGCAACCGTTTTCGGTTGCCCT
DNA 2: AGGGCAACCGAAAACGGTTGCAAG
binding result (E2 [5]): binds

— PMC12072466, “Mechanisms of Viral DNA Replication of Human Papillomavirus: E2 Protein-Dependent Recruitment of E1 DNA Helicase to the Origin of DNA Replication” (International Journal of Molecular Sciences, 2025)
